As a reminder, the stoichiometry N is a count of units in the complex or per binding partner.

The labels stand for the following.
B1: PetG subunit of the Synechocystis cytb6f complex (natural protein, Synechocystis sp. PCC 6803)
chain: MIEPLLLGIVLGLIPVTLAGLFVAAYLQYKRGNQFNLD
notes: PetG, Synechocystis sp; PCC 6803, endogenous subunit of cytb6f; Stood in the structure as a subunit of m2; source: Synechocystis PetA-StrepII strain, purified as part of cytb6f (StrepTrap HP, SEC)
B2: N-terminally hexa-Histidine (His)-tagged PetP (natural protein, Synechocystis sp. PCC 6803)
chain: MTIEIGQKVKVYRLRDRVSPDVVGKLGKVGVVKDFKMTDGSGIGAVVSFDDRTATWFFEDELKAI
notes: PetP, Synechocystis sp; PCC 6803, gene petP (ssr2998), codon optimized for E. coli, cloned into the NdeI and XhoI sites of pET28a(+); About 10 kDa protein; The vector pET28a(+) adds further residues between the His tag and the NdeI site; also called His-PetP; His6-tagged PetP; source: E. coli BL21(DE3), purified (HisTrap IMAC, PD-10 desalting); not shown: His6, N-terminal, kept

The target in assay [1] is T1, Synechocystis cytb6f-PetP complex (Rieske ISP subunit) (Synechocystis sp. PCC 6803, UniProt P26290).
T1 construct: gene petC1; same complex as P1; with Cytochrome b6; Cytochrome b6-f complex subunit 4; Cytochrome f; Cytochrome b6-f complex subunit 5; Cytochrome b6-f complex subunit 6; Cytochrome b6-f complex subunit 7; Cytochrome b6-f complex subunit 8; Cytochrome b6f regulatory subunit PetP
T1 sequence (P26290 2-180): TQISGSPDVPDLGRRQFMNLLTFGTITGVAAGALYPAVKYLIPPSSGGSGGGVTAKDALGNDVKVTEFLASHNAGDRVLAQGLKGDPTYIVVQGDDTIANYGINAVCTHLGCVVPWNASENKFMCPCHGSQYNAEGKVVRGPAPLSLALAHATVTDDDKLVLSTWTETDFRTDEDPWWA
Briefly: cryo-EM structure, […] Å. To be noted: native co-purified. It is filed as binding.

The target in assay [2] is T2, Synechocystis cytb6f-PetP complex (cytochrome b6 / subunit IV core) (Synechocystis sp. PCC 6803, UniProt P27589+Q57038).
T2 construct: gene petB; native dimeric complex from Synechocystis thylakoids in GDN, cytochrome f with C-terminal Ser-Ala-Strep-tag II; reconstituted with His6-PetP from E. coli; with Cytochrome f; Cytochrome b6-f complex iron-sulfur subunit; Cytochrome b6-f complex subunit 5; Cytochrome b6-f complex subunit 6; Cytochrome b6-f complex subunit 7; Cytochrome b6-f complex subunit 8; Cytochrome b6f regulatory subunit PetP
The experiment in a line: cryo-EM structure, […] Å. It is filed as binding. The settings on record: Qn site, one PQ per monomer near heme cn; native co-purified; with PetP.

Assay [3] has as its target T3, Synechocystis cytb6f complex (carotenoid site) (Synechocystis sp. PCC 6803, UniProt P0DXY4+P74149+P74810+Q57038).
T3 construct: gene petB; same complex as P1; with Cytochrome b6-f complex subunit 4; Cytochrome f; Cytochrome b6-f complex iron-sulfur subunit; Cytochrome b6-f complex subunit 8; Cytochrome b6f regulatory subunit PetP
The experiment in a line: cryo-EM structure; HPLC of extracted pigments. In kind it is binding. The settings on record: native co-purified; 9-cis configuration suggested.

The target in assay [4] is Synechocystis sp. PCC 6803 cytochrome b6f complex with C-terminally StrepII-tagged PetA, purified dimer (Synechocystis sp. PCC 6803) (UniProt P26287). The experiment in a line: cryo-EM structure; reconstituted cytb6f-PetP complex, 20 uM, in buffer D with GDN; 2.80 A.
Assay [5] shares this target. Briefly: cryo-EM structure; cytb6f without PetP, 17 uM, in GDN; 3.15 A.
The target is the same in assay [6]. Briefly: native gel or EMSA; BN-PAGE on NativePAGE 3-12% Bis-Tris gels, Coomassie stain; purified cytb6f and cytb6f-PetP; dimer against monomer of the complex. (In general: Mobility shift assays separate free from complexed probe on a gel.)
The target of assay [7] is B2. Briefly: cryo-EM structure; reconstituted cytb6f-PetP complex, 20 uM, in buffer D with GDN; 2.80 A. The settings on record: both partners purified.
Assay [8] addresses T4, cytochrome b6 subunit of the Synechocystis cytb6f complex (Synechocystis sp. PCC 6803, UniProt Q57038 1-222).
T4 construct: cytochrome b6, Synechocystis sp; PCC 6803, endogenous subunit of cytb6f; Stood in the structure as a subunit of m2; source: Synechocystis PetA-StrepII strain, purified as part of cytb6f (StrepTrap HP, SEC)
T4 sequence: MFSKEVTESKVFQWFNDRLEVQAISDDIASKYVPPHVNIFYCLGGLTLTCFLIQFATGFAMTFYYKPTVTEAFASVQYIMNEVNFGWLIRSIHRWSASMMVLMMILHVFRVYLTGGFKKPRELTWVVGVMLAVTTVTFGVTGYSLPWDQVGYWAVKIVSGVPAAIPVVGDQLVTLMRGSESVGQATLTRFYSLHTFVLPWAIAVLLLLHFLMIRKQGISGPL
Described as above. To be noted: both partners purified.

The target in assay [9] is T5, subunit IV of the Synechocystis cytb6f complex (Synechocystis sp. PCC 6803, UniProt P27589 1-160).
T5 construct: subunit IV, Synechocystis sp; PCC 6803, endogenous subunit of cytb6f; Stood in the structure as a subunit of m2; also called subIV; source: Synechocystis PetA-StrepII strain, purified as part of cytb6f (StrepTrap HP, SEC)
T5 sequence: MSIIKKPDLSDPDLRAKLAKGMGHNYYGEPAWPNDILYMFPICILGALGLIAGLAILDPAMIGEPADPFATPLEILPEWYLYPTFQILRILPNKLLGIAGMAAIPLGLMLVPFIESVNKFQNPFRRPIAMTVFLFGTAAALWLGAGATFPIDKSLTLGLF
The description is as above. To be noted: both partners purified.

Consider `[S]1[Fe][S][Fe]1` [2Fe-2S cluster], for which the “cryo-EM structure, 2.80 Å” value in [1] was “the 2Fe-2S cluster (orange Fe and yellow S)”.

On to `CC(C)=CCC/C(C)=C/CC/C(C)=C/CC/C(C)=C/CC/C(C)=C/CC/C(C)=C/CC/C(C)=C/CC/C(C)=C/CC/C(C)=C/CC1=CC(=O)C(C)=C(C)C1=O` [PQ, plastoquinone], for which, in [2], the “cryo-EM structure, 2.80 Å” value is listed as “resolves two native PQ molecules, one bound at each Qn site within the dimer”.

For the molecule `CC1=C(/C=C/C(C)=C/C=C/C(C)=C/C=C/C=C(C)/C=C/C=C(C)/C=C/C2=C(C)C(=O)CCC2(C)C)C(C)(C)CCC1` [echinenone], the “cryo-EM structure; HPLC of extracted pigments” value in assay [3] was “clear density for the ketone group on the end ring of echinenone”.

In the case of “Synechocystis sp. PCC 6803 cytochrome b6f complex with C-terminally StrepII-tagged PetA, purified dimer (from UniProt P26287 45-328; Q57038 1-222; P27589 1-160; P74149 1-38; P74810 1-36; P72717 1-29)”, the stoichiometry N in assay [4], in [5] and in assay [6] was 2 throughout. Turning to B1, in assay [7], the binding result is on record as “binds”. In the case of B2, the binding result in assay [8] and in assay [9] was “binds” in each case.

The values above are taken from publication PMC9342900, “Cryo-EM structures of the Synechocystis sp. PCC 6803 cytochrome b6f complex with and without the regulatory PetP subunit” (Biochemical Journal, 2022).
